Like-named read-outs stand apart in the source and are kept apart here.
Assays:
[1] = target: dimAβ (dimeric Aβ variant: two Aβ40 units linked in one polypeptide chain through a flexible glycine-serine-rich linker) (UniProt P05067); assay: ThT fluorescence aggregation kinetics; dimAβ at pH 7.4, concentration series, 37 °C, 150 mM NaCl, 1 µM ThT, microplate; lag-free oligomerization phase above the critical oligomer concentration
[2] = target: dimAβ (dimeric Aβ variant: two Aβ40 units linked in one polypeptide chain through a flexible glycine-serine-rich linker) (UniProt P05067); assay: as above; remark: listed apart in the source
[3] = target: dimAβ (dimeric Aβ variant: two Aβ40 units linked in one polypeptide chain through a flexible glycine-serine-rich linker) (UniProt P05067); assay: ThT fluorescence aggregation kinetics; dimAβ at pH 5.6, concentrations down to 0.4 µM, 37 °C, 150 mM NaCl

- critical oligomer concentration (COC) [1]: 1.5 µM
- critical oligomer concentration (COC) [2]: 1 µM
- critical oligomer concentration (COC) at pH 5.6 [3]: < 0.4 µM
Substance: dimAβ (dimeric Aβ variant: two Aβ40 units linked in one polypeptide chain through a flexible glycine-serine-rich linker) (from UniProt P05067 672-711; P05067 672-711)
